Measured values reported in patent US20230227565A1, “Method for Treating CD127-Positive Cancers by Administering an Anti-CD127 Agent” (OSE IMMUNOTHERAPEUTICS, priority 2021, published 2023).

How the values were obtained:
normal T cells = experiment: Phagocytosis of normal T cells by macrophages; format: cell-based, human; settings: FIG. 10
Description: (§1) Phagocytosis assays. In vitro phagocytosis assays were performed by 1-hour coculture of 2,5×10^4 human primary M1 or THP1 macrophages labeled with CellTrackerGreen (ThermoFisher, Waltham, Mass., USA, 1/2000, 20 min at 37° C.) and 5×10^4 leukemic cells labeled with CPD (ThermoFisher, 1/2000 10 min at 37° C.) in serum-free RPMI. Phagocytosis was analyzed by a CytoFLEX flow cytometer (Beckman, Brea, Calif., USA) and analysis using FlowJo software (TreeStar, BD Life Sciences Franklin Lakes, N.J., USAs). The phagocytic index was calculated as follows: fold change of percentage of CPD+ cells in CTG+ macrophages compared to the one detected by treatment with istotype control multiplied by the fold change in geometric mean in APC fluorescence (CPD) in CTG+ macrophages compared to the one detected with isotype control.

macrophages [1] = experiment: Toxicity on macrophages (viability); settings: FIG. 9; increasing doses
macrophages [2] = experiment: Phagocytosis of macrophages by macrophages (autophagocytosis); settings: FIG. 11A
Description: as §1

For “5F9: reference pro-phagocytic anti-CD47 antibody”, the “phagocytosis of normal T cells by macrophages” value (normal T cells) was “A similar result is obtained”, the “overall number of live macrophages” value (macrophages [1]) was “drastically reduced” and the autophagocytosis of macrophages (macrophages [2]) was “have an autophagocytosis activity”.
